From publication PMC13090976 (Cell Stress & Chaperones, 2026)

B1: human CHIP-TPR (residues 21-154) [human] / biotin-GSGSGP(pT)IEEVD [modified: biotin, printed before the first residue; phosphothreonine (pT; Thr636 in HSPA1A numbering); biotin, printed before the first residue; phosphothreonine (pT; … (parent complex)
chain 1: EKSPSAQELKEQGNRLFVGRKYPEAAACYGRAITRNPLVAVYYTNRALCYLKMQQHEQALADCRRALELDGQSVKAHFFLGQCQLEMESYDEAIANLQRAYSLAKEQRLNFGDDIPSALRIAKKKRWNSIEERR
chain 2: GSGSGPTIEEVD

Variants of: B1
Test: biolayer interferometry; read off a plot

Row | Kd | Variant
1 | ~1 µM | chain 1 G112S
2 | ~6.6 µM | chain 1 N45S
